From US20100074886A1, “CCR2 ANTAGONISTS FOR TREATMENT OF FIBROSIS” (priority 2006, published 2010)

Biological target: Human MCP-1 (CCL2), monocyte chemoattractant protein 1 (human), P13500
Assay: cell-based or functional assay

Sequence of Human MCP-1 (CCL2), monocyte chemoattractant protein 1 (human), P13500 (P13500 24-99): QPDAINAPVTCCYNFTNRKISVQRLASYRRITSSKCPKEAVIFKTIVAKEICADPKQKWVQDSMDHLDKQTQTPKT

B1: CCL2-neutralizing antibody CNTO888 (antibody, V domains shown)
VH: QVQLVQSGAEVKKPGSSVKVSCKASGGTFSSYGISWVRQAPGQGLEWMGGIIPIFGTANYAQKFQGRVTITADESTSTAYMELSSLRSEDTAVYYCARYDGIYGELDFWGQGTLVTVSS
VL: not shown
modifications: not checked
Q: Which results are given for B1?
A: CCL2 gene expression in fibrotic cell line 126, percent of untreated cell level (percent of untreated cell level): 2; CXCL5 gene expression in fibrotic cell line 126, percent of untreated cell level (percent of untreated cell level): < 1; CXCL5 protein level in supernatant of fibrotic cell line 126 with Anti-CCL2: 32; CXCL5 protein, percent of untreated (percent of untreated): < 1; G-CSF protein level in supernatant of fibrotic cell line 126 with Anti-CCL2: 1; G-CSF protein, percent of untreated (percent of untreated): < 1; IL6 gene expression in fibrotic cell line 126, percent of untreated cell level (percent of untreated cell level): < 1; IL6 protein level in supernatant of fibrotic cell line 126 with Anti-CCL2: 40; IL6 protein, percent of untreated (percent of untreated): < 1; IL8 protein level in supernatant of fibrotic cell line 126 with Anti-CCL2: 308; IL8 protein, percent of untreated (percent of untreated): 2; IL13Ra2 gene expression in fibrotic cell line 126, percent of untreated cell level (percent of untreated cell level): 5; VEGF protein level in supernatant of fibrotic cell line 126 with Anti-CCL2: 175; VEGF protein, percent of untreated (percent of untreated): 23; fold reduction of G-CSF protein with CNTO 888: 6800 fold; fold reduction of VEGF protein with CNTO 888: 4 fold
